In PMC9936548, “Repertoire of Computationally Designed Peroxygenases for Enantiodivergent C–H Oxyfunctionalization Reactions” (Journal of the American Chemical Society, 2023):
Changes are numbered by the printed parent chain. Numbers in names are those of the source.

B1: PaDa-I (evolved AaeUPO) (Cyclocybe aegerita; A359P/F242L/F354L/G284I/I291V/L110F/T235L/V100A/V118I/V287I) (protein)
chain: EPGLPPGPLENSSAKLVNDEAHPWKPLRPGDIRGPCPGLNTLASHGYLPRNGVATPAQIINAVQEGFNFDNQAAIFATYAAHLVDGNLITDLLSIGRKTRLTGPDPPPPASVGGLNEHGTFEGDASMTRGDAFFGNNHDFNETLFEQLVDYSNRFGGGKYNLTVAGELRFKRIQDSIATNPNFSFVDFRFFLAYGETTLPANLFVDGRRDDGQLDMDAARSFFQFSRMPDDFFRAPSPRSITGIEVVVQAHPMQPGRNVGKINSYTVDPTSSDFSTPCLMYEKFVNITVKSLYPNPTVQLRKALNTNLDFLFQGVPAGCTQVFPYGRD
notes: laboratory-evolved secretion mutant PaDa-I; mature, no tag; evolved signal peptide (F12Y/A14V/R15G/A21D in leader); heme and structural Mg; expressed in Pichia pastoris, purified to homogeneity
B2: PaDa-I (evolved AaeUPO) (Cyclocybe aegerita; A120I/F112L/F242L/F354L/G284N/I291V/L110F/V100A/V118I/V287T) (protein)
chain: B1 chain with F69L, A77I, L192T, I241N, I244T, P316A
notes: as for B1

Substrate: CCc1ccccc1
Assay: purified protein
Format: biochemical, Cyclocybe aegerita
[1] = 2 mM H2O2, 100 mM phosphate pH 7.0, design d2
[2] = 2 mM H2O2, 100 mM phosphate pH 7.0, design d4

Row | Protein | Km [1] [µM] | kcat [1] [s⁻¹] | kcat/Km [1] [M⁻¹ s⁻¹] | Km [2] [µM] | kcat [2] [s⁻¹] | kcat/Km [2] [M⁻¹ s⁻¹]
1 | B1 | 560 ± 200 | 570 ± 119 | 1.02e+06 |  |  | 
2 | B2 |  |  |  | 560 ± 200 | 570 ± 119 | 1.02e+06
